Source: article PMC11044963, “Probing the CRL4^DCAF12 interactions with MAGEA3 and CCT5 di-Glu C-terminal degrons” (PNAS Nexus, 2024)

Legend:
[1] = system: DCAF12 mutants K91A, K108A, R203A, R256A, R344A; assay: NanoBRET with full-length proteins, DCAF12 mutants; format: cell-based, human; settings: HEK293T cells; FL protein; all DCAF12 mutations vs WT
From the text: Fig. 2. Conserved arginine and lysine residues near DCAF12 central channel participate in MAGEA3 binding in cells. A) DCAF12 electrostatic surface potential analysis showing negatively and positively charged residues colored in red and blue, respectively. On the left, DDB1 contacting surface of DCAF12. On the right, substrate contacting surface with positively charged residues—Arg203, Arg256, and Arg344—highlighted as sticks. Electrostatic potential is shown on a scale of −10 (red) kT/e to 10 (blue). B) Conservation analysis of DCAF12 showing high conservation of the same positively charged residues (represented as sticks) among homologous sequences. Residues were colored on a scale from variable/low conservation (dark teal) to high conservation (magenta). […]
(§1) HEK293T cells were plated in 96-well plates (2 × 10^4/well) and 4 h later transfected with 0.03 µg/well N-terminally HT-tagged DCAF12 (WT or mutants) or HT alone and 0.001 µg/well N-terminally NL-tagged CCT5 and MAGEA3 (FL or -EE degrons) using X-tremeGene HP transfection reagent (Roche), following the manufacturer's instructions. […] Four hours later, 10 µL of NanoBRET Nano-Glo Substrate solution (8 µL/mL Nano-Glo substrate (Promega) diluted in DMEM/F12 no phenol red, supplemented with 4% FBS, penicillin 100 U/mL, and streptomycin 100 µg/mL) was added, and the signal was read. […]

[2] = system: DCAF12; assay: NanoBRET with full-length proteins, DCAF12; format: cell-based, human; settings: HEK293T cells; FL protein
From the text: To further investigate the DCAF12 interaction with MAGEA3 and CCT5 in cells, we developed a NanoBRET assay, which measures the interaction of […] FL MEAGEA3/CCT5 or C-terminal peptide containing degron sequences ([…]/[…], respectively). When donor and acceptor proteins are in close proximity, the donor excites the acceptor, which then emits fluorescence, allowing for direct measurement of protein–protein interaction in cells.
as §1, with “read. Donor emission at 450 nm (filter: 450 nm/BP 80 nm) and acceptor emission at 618 nm (filter: 610 nm/LP) were measured within 10 min of substrate addition using CLARIOstar microplate reader (Mandel).” for “read.”

B1: MAGEA3-FL: full-length melanoma-associated antigen 3 protein (protein)
chain: MPLEQRSQHCKPEEGLEARGEALGLVGAQAPATEEQEAASSSSTLVEVTLGEVPAAESPDPPQSPQGASSLPTTMNYPLWSQSYEDSSNQEEEGPSTFPDLESEFQAALSRKVAELVHFLLLKYRAREPVTKAEMLGSVVGNWQYFFPVIFSKASSSLQLVFGIELMEVDPIGHLYIFATCLGLSYDGLLGDNQIMPKAGLLIIVLAIIAREGDCAPEEKIWEELSVLEVFEGREDSILGDPKKLLTQHFVQENYLEYRQVPGSDPACYEFLWGPRALVETSYVKVLHHMVKISGGPHISYPPLHEWVLREGEE
modifications: left off: NanoLuc, N-terminal, kept
notes: full-length melanoma-associated antigen 3 protein
decrease of DCAF12 interaction by mutations, NanoBRET [1]: over 50% | BRET signal over negative control [2]: 22 fold
